Test results from paper PMC8635433 (2021).

How the values were obtained:
Test in all cases: SPR
[1] = biological target: T1, CD46, immobilised for SPR (UniProt P15529 35-392)
T1 chain: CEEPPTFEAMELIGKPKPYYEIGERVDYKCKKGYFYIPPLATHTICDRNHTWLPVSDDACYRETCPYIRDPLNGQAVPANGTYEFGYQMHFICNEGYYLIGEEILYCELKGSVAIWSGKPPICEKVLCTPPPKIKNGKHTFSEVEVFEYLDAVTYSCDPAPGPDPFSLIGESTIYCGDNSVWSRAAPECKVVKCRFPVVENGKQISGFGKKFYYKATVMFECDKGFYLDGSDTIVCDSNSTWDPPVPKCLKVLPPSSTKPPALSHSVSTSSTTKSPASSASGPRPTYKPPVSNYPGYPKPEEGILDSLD

[2] = biological target: T1, CD46, immobilised for SPR
[3] = biological target: T2, coxsackie and adenovirus receptor (CAR), immobilised for SPR (UniProt P78310 20-365)
T2 chain: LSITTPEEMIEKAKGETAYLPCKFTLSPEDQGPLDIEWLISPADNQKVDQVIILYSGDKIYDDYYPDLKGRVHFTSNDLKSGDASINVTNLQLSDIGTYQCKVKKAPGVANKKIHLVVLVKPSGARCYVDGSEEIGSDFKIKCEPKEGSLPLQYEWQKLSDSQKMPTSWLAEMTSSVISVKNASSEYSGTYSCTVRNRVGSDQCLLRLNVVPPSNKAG

B1: HAdV-B35 fiber knob protein (domain or fragment)
chain: FNNGDICIKDSINTLWTGINPPPNCQIVENTNTNDGKLTLVLVKNGGLVNGYVSLVGVSDTVNQMFTQKTANIQLRLYFDSSGNLLTEESDLKIPLKNKSSTATSETVASSKAFMPSTTAYPFNTTTRDSENYIHGICYYMTSYDRSLFPLNISIMLNSRMISSNVAYAIQFEWNLNASESPESNIATLTTSPFFFSYITEDDN
Q: Which Kd [1] does the source give for B1 here?
A: 4.38 nM

Q: What about the koff [2] of the same binder?
A: 0.000994 s⁻¹

B2: HAdV-C5 fiber knob protein (domain or fragment)
chain: TGAITVGNKNNDKLTLWTTPAPSPNCRLNAEKDAKLTLVLTKCGSQILATVSVLAVKGSLAPISGTVQSAHLIIRFDENGVLLNNSFLDPEYWNFRNGDLTEGTAYTNAVGFMPNLSAYPKSHGKTAKSNIVSQVYLNGDKTKPVTLTITLNGTQETGDTTPSAYSMSFSWDWSGHNYINEIFATSSYTFSYIAQE
Q: For B2, which koff [3] is on record?
A: 0.000109 s⁻¹

B3: ChAdOx1 fiber knob protein (domain or fragment)
chain: GALTAGNKEDDKLTLWTTPDPSPNCQLLSDRDAKFTLCLTKCGSQILGTVAVAAVTVGSALNPINDTVKSAIVFLRFDSDGVLMSNSSMVGDYWNFREGQTTQSVAYTNAVGFMPNLGAYPKTQSKTPKNSIVSQVYLNGETTMPMTLTITFNGTDEKDTTPVSTYSMTFTWQWTGDYKDKNITFATNSFTFSYMAQE
Q: B3 was tested. Which koff [3] did it give?
A: 0.00018 s⁻¹
